The text below walks through data of the DeepSol protein solubility set.

A short description of the data set: soluble on expression in E. coli; label from the status in PepcDB or PDB records.
Consider “MTESTTSSPHDAVFKTFIFTPETARDFLEIHLPEPLRKLCNLQTLRLEPTSFIEKSLRAYYSDVLWSVETSDGDGYIYCVIEHQSSAEKNMAFRPMRYATAAMQSHLDKGYDRVPLVVPLLFYHGETSPYPYSLNWLDEFDDPQLARQLYTEAFPLVDITIVPDDEIMQHRRIALLELIQKHIRDHDLIGMVDRITTLLVRGFTNDSQLQTLFNYLLQCGDTSRFTRFIQEIAERSPLQKERLMTIAERLRQEGHQIGWQEGKLVGLQQGKLEGLQEGMHEQAIKIALRMLEQGIDRDQVLAATQLSEADLAANNH”, for which the “soluble on expression in E. coli” value is reported as “not soluble”.

With “MTETDFKLKYWGNQEQDYILPTVGLGREYLVLGKLLISLSKWRAKGLIDFDVYLRPTGVGTLTNTINYEYYKGLEDKYDLTLYIRAKDSYYPLLWIDITGSSWTEEQSKERYGESIYAILSVKVETAKKYDVLGRVFFIHYNDTEDKLKCISALQILNLERQNKIKKDKFERGAKSEYYLIPTSYWKNLTELRIALRGFYQSFKEYLARSNK”, the “soluble on expression in E. coli” value was “soluble”.

For the sequence “MTETELSERLRTWLSQDNERMRALELVLQCAQVHDMPQWCIAAGFVRNLVWDKLHGFDRQPLNDIDLIYYCPLDARPERDWAIEACLRACAPELPWSVKNQARMHLKNHDNPYQSSSDAMAYWPEMETAVGVSLNPTLKTSASVIENLQIVAPFGLASLLALTLTRNPRRSLAVFEQRIIAKGWLSQYPQLVLAN”, the “soluble on expression in E. coli” value is “soluble”.

As to “MTETTENVVITIPDKTSFTFHEAATSPSEGEEFVVGHFRELTVKISGSSTSREIKFYAVDENGEKTALSGTNKTDFQLGSSTLNTNEYWDFDIAGLFKVMFEVVSVTGDVTVKGIVVSLEHHHHHH”, the “soluble on expression in E. coli” value is “soluble”.

With “MTFEAITREWYQRRYDRWSESYRLEMMSTFESDVFPYIGYRPIKEIKPLELMAVLSKLEKRGATEKMRKVRQRCGEVWKYAIITGRAEYNPAPDLASAFAPHKREHLEHHHHHH”, the “soluble on expression in E. coli” value is “not soluble”.

In the case of “MTFEKIEEAYQLLLENCQLIENDLKTHIYDAIVEQNSFYLGAEGASPQVAQNSDKLKALCLTKEEWRKAYQFLFIKAAQTEQLQANHQFTPDAIGFILLYLLEQLSDKDSLEVLEIGSGTGNLAQTLLNNTSKSLDYVGIELDDLLIDLSASIAEIMDSSAHFIQEDAVRPQLLKESDIVISDLPVGYYPNDDIAKRYKVASSDKHTYAHHLLMEQSLKYLKKDGFAIFLAPVNLLTSPQSQLLKQWLKDYAQVVTLITLPDSIFGHPSNAKSIIVLQKQTDHPMETFVYPIRDLKLAENIHDFMENFKKWKLSNVN”, the “soluble on expression in E. coli” value is listed as “not soluble”.

Regarding “MTFKPVEICVYGADVICPACVQLPSSKETYEWLEAALRRKYPDQPFVMTYVDIFAPPADDEEKRELAQTIVEEDWVYPVVVIEGNVVAEGNPRLKAICAEMEKFGYRPSAHEGKKAE”, the “soluble on expression in E. coli” value is on record as “not soluble”.

For the sequence “MTFRPFWLDQALRSEHAAPCPPLAGDTRADVCIVGGGYTGLWTAIMLKEHDPGLDVVLVEADLCGAGASGRNGGCALSWSAKFFTLERLFGLTEAIRLVKASEDSIRAIGAFCQRYDVEADYRLDGTLYTATNPAQVGSTDSVIAALERHGINSFAKRPLADVQRLAGSRRHLEGWFSPAAATVQPGKLVRGLRRVALQLGVRLYEGTPMRGLEHGRPAEVVTPHGRVVAGRVVLALNAWMARAFPQFERSVAIVSSDMLITEPRPDLLQEIGLTSGVSVLDSRIFVHYYHNTPDGRLMLGKGGNTFAYGGRMLPVFDRPSPYLGQLRGSLREFFPEFAEVAIEASWNGPSDRSVTGLPFFGRLDGRDNVFYGFGYSGSGVGPCHMGGQILSSLALGLDNPWTRSPLTQGPLGRFPPEPIRYVGSLMVRNAIRRKEHAEDAGRRPRHLDVRLARFAAAAGKADKGLEHHHHHH”, the “soluble on expression in E. coli” value is “not soluble”.

Turning to “MTGATGFIGKYIIDNLLARGFHVRALTRTARAHVNDNLTWVRGSLEDTHSLSELVAGASVVVHCAGQVRGHKEEIFTRCNVDGSLRLMQAAKESGFCQRFLFISSLAARHPELSWYAKSKYVAEQRLAAMADEITLGVFRPTAVYGPGDKELKPLFDWMLRGLLPRLGAPDTQLSFLHVTDFAQAVGQWLSAETVQTQTYELCDGVAGGYDWQRVRQLAAKARCGSVRMVDIPLPVLTGLADISTALSRLAGKEPMLTRSKIRELTHADWSASNNRISEDINWFPGISLEHALRNGLF”, the “soluble on expression in E. coli” value is on record as “not soluble”.

With “MTGQAAGPAAGPAAGQATKHAGGRRPGETRTREAILTAARVCFAERGFDATSLRRIAETAGVDQSLVHHFYGTKENLFLQALELPGKIEEAITAAAQGGLDGIGERVVRAHLSVWDDVSSRPALMTMVRSAAIHRAAAARLRETATGILARALGGVITGEDAMLRTSMVATQLVGLAMMRYVAHLEPLASADTDTVARHYGRAVQAIVTDRD”, the “soluble on expression in E. coli” value is reported as “soluble”.

As for “MTGVDPTIVKIHEIQGTGTASPLVNNVVTIEAIVVGDFQDGDGDISRNLRGFYVQEEDADVDGNVATSEGIFIFENGNFITDVNVGDKVQITGTVDEFFGETQIDTITNITVISSGNTLPTAANITLPTAGTTESQGGTPQPDLEAFEGMLVKFTDTLTITEMFNLDRFNEIKLSQGGRPQQFTQFNDANVAGYGAYREEIGARTITYDDGLSVQNAEISNLDGFGSSFSTASDIRMGDTINNLTGVLSYQWAGNASSGATWRVRSAVDGTNQFTKVNDRPVTPENVGGSLKVTGFNVLLEHHHHHH”, the “soluble on expression in E. coli” value was “soluble”.

With “MTHKGSCHCGRIAFEVDGEPGSAMACNCSICQRKGSLLWFVPREHLHLLTPDENASTYTFNKHVIRHRFCPVCGMHPYGEGTGADGKAMVAINIRCLEDIDLAAVPVTQFDGRSRLEHHHHHH”, the “soluble on expression in E. coli” value is “soluble”.

“MTIEFINCAGCKAKIAEEDVEKNKVVFFLNRMWHRDHIQCIFCKLQISDNRYFRSSIDPMKPSCYACHIQTNHPSCTGCSLPVIERGLVAFNRLFHIDCFRCAICNKTIPQRKGFYERDMMFYDDVCYMLHIKDVL”: the “soluble on expression in E. coli” value is listed as “not soluble”.

Turning to “MTIELRDVTMENYFDVLNLDVKEYQKQFIATNAISLAEAYVYTKNGDFVAPLAVYDNDAIIGFVMIAYDKKIGISSGNYLLFRFMIDKNFQNQGYFKPIMDKVLDYVRTAPAGLSNKLWLSYEPENEQARFCYLSYGFKETGEISENEVVAIYDLTIEK”, the “soluble on expression in E. coli” value is reported as “not soluble”.

Consider “MTIIAGLPVEYNDRFIRGIAVFAPWRKTPGNYHQSHGACLGRRSRTITVVDEQPQGMDMDPTCSLFTTGQCLGEPDLLASARRLQFFSHQYSIAVLMANARGNSALWDEYGRLIVRADRGSLLLVGQRSSQGWQGDIIPLR”, for which the “soluble on expression in E. coli” value was “not soluble”.

Turning to “MTIIFPSPIFGPVHSRRLGVSLGINLLPEDGKVCSFDCIYCECGFNADHRPKKHLPTREEVRIALEEKLKDMQKNGPAPDVLTFAGNGEPTAHPHFPEIIEDTLALRDHYFPNAKVSVLSNSTFIDRPAVFDALNKIDNNILKLDTVNEEYIHLLDRPNGKYSVRKIIEKMKEFKGNCIVQTMFLKGSYLGKDMNNTSDEFVLPWLEAVKEIAPSQVMIYTIDRETPDHDLQKATHEELDRIVELIKRTGIPATASY”, the “soluble on expression in E. coli” value is listed as “not soluble”.

As for “MTITNSKAEAWELIGNQFWTIGRVAARPSDRENDIFLENIVPGSTVAVIGASTRFLIEKALERGASVTVFDFSQRMCDDLAEALADRCVTIDLLDITAEIPKELAGHFDFVLNDRLINRFTTEEARRACLGMLSLVGSGTVRASVKLGFYDIDLKLIEYGEQSGTLAKFFDPSDKTFHFREAGDVLDRALVPHGLIDKPTLLEWYRRRGKETRFDDEDVRAL”, the “soluble on expression in E. coli” value is “not soluble”.

As to “MTKEAVLYKKEDGRIRCLACARKCLIGEGQVGFCGVRSVRNGKLYLDVYGKIAAAHIDPIEKKPLVHFNPGSKVFSFSTYGCNWMCMYCQNYDISQRRKAEGVELSPEEIVELAMGYDVDGMTYTYNEPAIFSEFAHDVGIVAKRYGLFNTMVSNGYWTPNLVDYVKDFLDAVTIDFKGNGEQKFLRRYTGATSAEPIIETASELSKKGIHVEITDLIIPQIGDDLQAAKQLLTKLYDQLGADIPIHFLRFHPDYKLNYIPWTPVETLERHYKLAKELGFKFVYVGNVPGHPYENTYCPNCGNLVIRRYSFDILEWHLTEDMRCKFCGYKLPIRGKLSRHAFKERFEPVFI”, the “soluble on expression in E. coli” value is listed as “not soluble”.

“MTKEQIQIIKDCVPILQKNGEDLTNEFYKIMFNDYPEVKPMFNMEKQISGEQPKALAMAILMAAKNIENLENMRSFVDKVAITHVNLGVKEEHYPIVGACLLKAIKNLLNPDEATLKAWEVAYGKIAKFYIDIEKKLYDK”: the “soluble on expression in E. coli” value is “soluble”.

For “MTKIACVIVTYNRKQLLEEALNSVLIQTESPEYVFVIDNASTDGTEKYINDKFNFDNRQWHYVRCSQNLGGSAGFAQGMRLALQTDCSWISISDDDAIFEPGYFAALRKGIKQYPEQSVFSGSVLLPDGKHDMMHREVITNSATLTVRCVTDETYKHDFSYDIFSFVGILLSRQVIEAIGLPEQDYFIRFDDFEYAVRALKFGRFMNLSAAKVLHKTTYTRSALEHHHHHH”, the “soluble on expression in E. coli” value is “not soluble”.

Take “MTKKLIKIWRKEMLALMNEDADWYRNEDTERFKRIQELARKIETANTRQFSSHISKERFEAYQKMGLQFKEIAEEFHITTTALQQWRKDNGYPIYNKNNRK”: the “soluble on expression in E. coli” value is “not soluble”.

For “MTKKQLHLVIVTGMSGAGKTVAIQSFEDLGYFTIDNMPPALLPKFLQLVEIKEDNPKLALVVDMRSRSFFSEIQAVLDELENQDGLDFKILFLDAADKELVARYKETRRSHPLAADGRILDGIKLERELLAPLKNMSQNVVDTTELTPRELRKTLAEQFSDQEQAQSFRIEVMSFGFKYGIPIDADLVFDVRFLPNPYYLPELRNQTGVDEPVYDYVMNHPESEDFYQHLLALIEPILPSYQKEGKSVLTIAMGCTGGQHRSVAFAKRLAQDLSKNWSVNEGHRDKDRRKETVNRS”, the “soluble on expression in E. coli” value is given as “not soluble”.

For the sequence “MTKNKMEAKIDELINNDPVWSSQNESLISKPYNHILLKPGKNFRLNLIVQINRVMNLPKDQLAIVSQIVELLHNSSLLIDDIEDNAPLRRGQTTSHLIFGVPSTINTANYMYFRAMQLVSQLTTKEPLYHNLITIFNEELINLHRGQGLDIYWRDFLPEIIPTQEMYLNMVMNKTGGLFRLTLRLMEALSPSSHHGHSLVPFINLLGIIYQIRDDYLNLKDFQMSSEKGFAEDITEGKLSFPIVHALNFTKTKGQTEQHNEILRILLLRTSDKDIKLKLIQILEFDTNSLAYTKNFINQLVNMIKNDNENKYLPDLASHSDTATNLHDELLYIIDHLSEL”, the “soluble on expression in E. coli” value is listed as “soluble”.

Turning to “MTKPAPTPLYNEFTFFLKKYFSYKVQKISLNAGFTCPNRDGTKGLGGCTYCNNQTFNPEYCKTEKSVTRQLEEGKQFFAHKYPDMKYLAYFQAYTNTYAELEGLKGKYEEALSVDGVVGLVIGTRPDCMPDPLLRYLEELNKHTFLLVEYGIETTRDVTLKRINRGHTYADTVETVNRTAACGILTGGHVILGLPGETHDEIIAQAAELSRLPLTTLKMHQLQLIRGTKMAREFECRPEDFHLFSVDEYIDLVIDYVEHLRPDLILERFVSQSPKELLIAPDWGLKNYEFTARVQKRMKERGAYQGKAYLV”, the “soluble on expression in E. coli” value is given as “not soluble”.

Turning to “MTKQYLTHRCLIAPPEMADDFFANTVIYLARHDDEGAQGLIINRPSGIQVRELLNDLDIEADHVQPHEVLQGGPLRPEAGFVLHTGQPVWHSSIAVGENLCITTSKDILDAIAHNEGVGRYQIALGYASWTKNQLEGEISRGDWLICDADMDLIFNLPYDERWDAAYKKLGVDRIWLSSEIGHALEHHHHHH”, the “soluble on expression in E. coli” value was “soluble”.
